Data from the RNAGym collection of RNA variant scans (doi:10.1073/pnas.2313332121).

B1: TPR t1 (parent)
chain: GACCAAUCUGCCCUCAGAGCUCGAGAACAUCUUCGGAUGCAGAGGAGGCAGGCUUCGGUGGCGCGAUAGCGCCAACGUCCUCAACCUCCAAUGCAUCCCACCACAUGAUGAUGCCUGAAGAGCCUUGGUUUUUUG

Variants of: B1
Assay: polymerase ribozyme fitness, log enrichment relative to wild type (log ratio); higher = more active; in vitro selection for triplet polymerase activity
In short: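 Mutant libraries were PCR-built and transcribed for each subunit of a heterodimeric triplet polymerase ribozyme and selected for one round in triplicate at −7 °C, frozen, before gel excision of extended constructs and streptavidin-bead capture. Input and output libraries were Illumina-sequenced, keeping genotypes with ≥10 input reads and ≥1 read per output. Fitness is a logarithmic ratio of genotype to wild-type enrichment, in base 2, using inverse-variance-weighted replicate averages.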

Compared with A95C U106A C124U, A95C U116C U129A U131C G135U is lower in “polymerase ribozyme fitness (log ratio)” value: 1.29 for the first, -3 for the second.

Compared with A95G C98G G120U, A95G C98U G113A A118G is higher in “polymerase ribozyme fitness (log ratio)” value: -6.09 for the first, -3.57 for the second.

Compared with A95G C102U, A95G C104A U109C C114U C124A is lower in “polymerase ribozyme fitness (log ratio)” value: -1.91 for the first, -2.73 for the second.

First: A95G C123G
Second: A95G G117C
The “polymerase ribozyme fitness (log ratio)” value of the first is higher: 1.72 for the first, -3.87 for the second.

Compared with A95U A103G, A95U A119U U125A G127U is higher in “polymerase ribozyme fitness (log ratio)” value: -6.8 for the first, -2.7 for the second.

First: A95U G113U U125A
Second: U96A C98U
The “polymerase ribozyme fitness (log ratio)” value of the first is lower: -3.81 for the first, -3.4 for the second.

Going from U96A C115A to U96A C123G, the “polymerase ribozyme fitness (log ratio)” value rises from -3.09 to 0.707.

Going from U96A G113U to U96A G120C, the “polymerase ribozyme fitness (log ratio)” value rises from -3.61 to 0.228.

Compared with U96A G128C, U96A U112C G127C is higher in “polymerase ribozyme fitness (log ratio)” value: -3.28 for the first, -0.056 for the second.

U96A U125G and U96A U131G are within 0.2 log units of each other in “polymerase ribozyme fitness (log ratio)” value: -1.93 for the first, -1.96 for the second.

First: U96C A100U
Second: U96C A118U
The “polymerase ribozyme fitness (log ratio)” value of the first is lower: -1.08 for the first, 1.27 for the second.

First: U96C C123G
Second: U96C U106A
The “polymerase ribozyme fitness (log ratio)” value of the first is higher: 1.78 for the first, -1.43 for the second.

Going from U96C U126C to U96G C98U, the “polymerase ribozyme fitness (log ratio)” value falls from -1.7 to -3.02.

First: U96G C102A G127C
Second: U96G C102G C124U U125A
The “polymerase ribozyme fitness (log ratio)” value of the first is higher: -3.73 for the first, -6.03 for the second.

Going from U96G G113U to U96G U129C, the “polymerase ribozyme fitness (log ratio)” value rises from -3.21 to -0.569.

First: C97A
Second: C97A C114U
The “polymerase ribozyme fitness (log ratio)” value of the first is higher: -4.67 for the first, -5.03 for the second.

Going from C97A U112C to C97G, the “polymerase ribozyme fitness (log ratio)” value falls from -2.11 to -4.4.

First: C97G A119G
Second: C97G G127U
The “polymerase ribozyme fitness (log ratio)” value of the first is higher: -2.68 for the first, -3.75 for the second.

First: C97U
Second: C97U A119U C123A
The “polymerase ribozyme fitness (log ratio)” value of the first is higher: -0.53 for the first, -1.43 for the second.

First: C97U C98A
Second: C97U C123G U126A
The “polymerase ribozyme fitness (log ratio)” value of the first is lower: -4.41 for the first, 0.329 for the second.

C97U G110A and C97U G113A are within 0.2 log units of each other in “polymerase ribozyme fitness (log ratio)” value: -1.67 for the first, -1.5 for the second.

Going from C97U G117A to C97U U106A U132G U133A, the “polymerase ribozyme fitness (log ratio)” value rises from -2.32 to 0.00837.

C97U U106G and C97U U116G are within 0.2 log units of each other in “polymerase ribozyme fitness (log ratio)” value: -2.7 for the first, -2.81 for the second.

C97U U125A and C97U U125G are within 0.2 log units of each other in “polymerase ribozyme fitness (log ratio)” value: -1.31 for the first, -1.25 for the second.

First: C97U U129A
Second: C98A A100G C114A
The “polymerase ribozyme fitness (log ratio)” value of the first is higher: -2.18 for the first, -6.06 for the second.

Going from C98A A111U to C98A C104U, the “polymerase ribozyme fitness (log ratio)” value rises from -5.78 to -4.88.

First: C98A C123U
Second: C98A G120A
The “polymerase ribozyme fitness (log ratio)” value of the first is lower: -4.06 for the first, -3.18 for the second.

Compared with C98A U112G, C98G G120C is higher in “polymerase ribozyme fitness (log ratio)” value: -5.66 for the first, -3.19 for the second.

Compared with C98U G110A, C98U G110C is lower in “polymerase ribozyme fitness (log ratio)” value: -2.39 for the first, -4.91 for the second.

Going from C98U G117C to C98U U112A, the “polymerase ribozyme fitness (log ratio)” value rises from -5.29 to -1.61.

Compared with C98U U116A A119G, C98U U116C is lower in “polymerase ribozyme fitness (log ratio)” value: -0.385 for the first, -1.99 for the second.

Compared with C98U U125G, C99A C102A U109A G127C is lower in “polymerase ribozyme fitness (log ratio)” value: -2.35 for the first, -6.24 for the second.

C99A C102U and C99A C123G are within 0.2 log units of each other in “polymerase ribozyme fitness (log ratio)” value: -4.82 for the first, -4.92 for the second.

First: C99A G120C
Second: C99A G127C
The “polymerase ribozyme fitness (log ratio)” value of the first is higher: -3.95 for the first, -5.7 for the second.

First: C99A U112A G120A
Second: C99A U112G C114U
The “polymerase ribozyme fitness (log ratio)” value of the first is higher: -5.93 for the first, -6.6 for the second.

Going from C99A U132C to C99G G120A, the “polymerase ribozyme fitness (log ratio)” value falls from -4.94 to -7.03.

Compared with C99U A121G, C99U C115G is lower in “polymerase ribozyme fitness (log ratio)” value: -0.804 for the first, -4.9 for the second.

Going from C99U G117U to C99U U132C, the “polymerase ribozyme fitness (log ratio)” value rises from -3.93 to -3.53.

C99U U133A and A100C C101G C104A C124A are within 0.2 log units of each other in “polymerase ribozyme fitness (log ratio)” value: -2.99 for the first, -3.18 for the second.

First: A100C C104U
Second: A100C G110C
The “polymerase ribozyme fitness (log ratio)” value of the first is higher: -0.176 for the first, -4.94 for the second.

Going from A100C G117A to A100C U106A U132C, the “polymerase ribozyme fitness (log ratio)” value rises from -2.55 to -0.19.

Compared with A100U A111G, A100U C101U C104A is lower in “polymerase ribozyme fitness (log ratio)” value: 0.222 for the first, -2.87 for the second.

Going from A100U G113C to A100U U125G, the “polymerase ribozyme fitness (log ratio)” value rises from -2.85 to -0.739.

Compared with A100U U129A, C101A C102A is lower in “polymerase ribozyme fitness (log ratio)” value: -0.992 for the first, -5 for the second.

Compared with C101A C115U, C101A G107U U112G is lower in “polymerase ribozyme fitness (log ratio)” value: -2.63 for the first, -6.92 for the second.

Compared with C101A G113A, C101A G113A G122C is higher in “polymerase ribozyme fitness (log ratio)” value: -2.4 for the first, -1.6 for the second.

Going from C101A G117U G122A U125A to C101A U106C G110C U134G, the “polymerase ribozyme fitness (log ratio)” value falls from -4.5 to -4.82.

Going from C101A U126G G127C to C101A U132A, the “polymerase ribozyme fitness (log ratio)” value rises from -2.49 to -0.824.

Compared with C101G C102A U130C, C101G C114A is higher in “polymerase ribozyme fitness (log ratio)” value: -4.99 for the first, -3.3 for the second.

Going from C101G C115U to C101G C124G, the “polymerase ribozyme fitness (log ratio)” value rises from -3.55 to -0.536.

Compared with C101G G120C, C101G G122C C124A U126A is lower in “polymerase ribozyme fitness (log ratio)” value: -0.696 for the first, -3.82 for the second.

Compared with C101G G127U, C101G U133G is higher in “polymerase ribozyme fitness (log ratio)” value: -2.83 for the first, -2.02 for the second.

Compared with C101U A108U U109G, C101U A121G U126A is higher in “polymerase ribozyme fitness (log ratio)” value: -6.14 for the first, 1.07 for the second.

First: C101U G107C
Second: C101U G110C
The “polymerase ribozyme fitness (log ratio)” value of the first is lower: -6.63 for the first, -3.42 for the second.

Compared with C101U G117C, C101U G135U is higher in “polymerase ribozyme fitness (log ratio)” value: -3.39 for the first, -1.68 for the second.

Compared with C101U U106A, C101U U109G A111U is lower in “polymerase ribozyme fitness (log ratio)” value: -0.286 for the first, -4.63 for the second.

First: C101U U112A
Second: C101U U112C
The “polymerase ribozyme fitness (log ratio)” value of the first is lower: 0.284 for the first, 0.493 for the second.

Going from C101U U116C A119G U129A to C102A A121U U131C, the “polymerase ribozyme fitness (log ratio)” value falls from 1.01 to 0.0525.

First: C102A C115G
Second: C102A C123G
The “polymerase ribozyme fitness (log ratio)” value of the first is lower: -3.72 for the first, -0.232 for the second.

Going from C102A G120U U130G to C102A G135U, the “polymerase ribozyme fitness (log ratio)” value falls from -2.39 to -3.13.

Going from C102A U125G to C102A U130A, the “polymerase ribozyme fitness (log ratio)” value falls from -2.8 to -3.46.

Going from C102G U112A to C102U A119G, the “polymerase ribozyme fitness (log ratio)” value rises from -5.7 to -0.237.

First: C102U A121G
Second: A103C C104A
The “polymerase ribozyme fitness (log ratio)” value of the first is higher: 0.0036 for the first, -2.67 for the second.

First: A103C C123A C124A
Second: A103C G107A U112G G113A
The “polymerase ribozyme fitness (log ratio)” value of the first is higher: -3.52 for the first, -6.72 for the second.

First: A103C U132A
Second: A103G C115U U129G U133A
The “polymerase ribozyme fitness (log ratio)” value of the first is higher: -4.12 for the first, -5.83 for the second.

Going from A103G U112G to A103U G113A, the “polymerase ribozyme fitness (log ratio)” value rises from -4.71 to -3.81.

Going from A103U U106G to A103U U132A, the “polymerase ribozyme fitness (log ratio)” value falls from -4.14 to -5.02.

First: C104A A108G U112A A118G G122U
Second: C104A G122A
The “polymerase ribozyme fitness (log ratio)” value of the first is lower: -5.36 for the first, -2.31 for the second.

Compared with C104A U112A, C104A U116A is lower in “polymerase ribozyme fitness (log ratio)” value: 0.162 for the first, -5.02 for the second.

Compared with C104G G113C, C104G U106A C124G is higher in “polymerase ribozyme fitness (log ratio)” value: -6.7 for the first, -3.47 for the second.

Going from C104U C115A to C104U C115G, the “polymerase ribozyme fitness (log ratio)” value falls from 0.0102 to -1.22.

Compared with C104U G110A, C104U G113C C123A is lower in “polymerase ribozyme fitness (log ratio)” value: -0.458 for the first, -3.61 for the second.

Compared with C104U G120C, C104U U106A is lower in “polymerase ribozyme fitness (log ratio)” value: 0.802 for the first, -0.522 for the second.

Going from C104U U112G to C104U U116C, the “polymerase ribozyme fitness (log ratio)” value falls from 0.761 to -0.608.

Going from A105C C114A to A105C G120A A121U, the “polymerase ribozyme fitness (log ratio)” value rises from -3.98 to -1.51.

Going from A105C U125G to A105U C124U, the “polymerase ribozyme fitness (log ratio)” value rises from -3.17 to -0.354.

Compared with A105U G113A, A105U G135C is higher in “polymerase ribozyme fitness (log ratio)” value: -4.72 for the first, -2.07 for the second.

Going from A105U G135U to A105U U116C, the “polymerase ribozyme fitness (log ratio)” value falls from -2.99 to -3.7.

First: A105U U126A U129A U130G
Second: U106A A111C
The “polymerase ribozyme fitness (log ratio)” value of the first is lower: -6 for the first, -1.96 for the second.

Compared with U106A C124A, U106A G117U G127U is lower in “polymerase ribozyme fitness (log ratio)” value: 1.81 for the first, -0.344 for the second.

Compared with U106A U129A, U106C A118U is higher in “polymerase ribozyme fitness (log ratio)” value: -1.17 for the first, -0.171 for the second.

Compared with U106G A119G, U106G C114G is lower in “polymerase ribozyme fitness (log ratio)” value: 0.3 for the first, -3.54 for the second.

First: U106G C123U G127A
Second: U106G G110C U112C
The “polymerase ribozyme fitness (log ratio)” value of the first is higher: -3.09 for the first, -5.6 for the second.

For U106G G117C, the “polymerase ribozyme fitness (log ratio)” value was -1.59.
